Experimental data from US20260242485A1 (LEPU BIOPHARMA, published 2026).

Assays:
[1] = target: T1, human CCR8 expressed on cells (human, UniProt P51685 1-355); assay: flow cytometry, HEK293 hCCR8 cells (HEK293 NC parental cells as control), PE anti-human IgG Fc, geometric mean
T1 construct: whole, on cells; also called hCCR8; HEK293 hCCR8 cell line
Protocol: (§1) Briefly, HEK293 hCCR8 cell line, CHO-K1 mCCR8 cell line and the parental cell lines were first incubated with serially diluted 194A1G9 at 4° C. for 30 mins. After washing by FACS buffer, PE Goat anti-Human IgG Fc Secondary Antibody (eBioscience™, Invitrogen) was added to each well and incubated at 4° C. for 30 mins. Samples were washed twice with FACS staining buffer. The mean florescence intensity (MFI) of PE was evaluated by MACSQuant Analyzer 16.

[2] = target: T2, mouse CCR8 expressed on CHO-K1 cells (mouse, UniProt P56484 1-353); assay: flow cytometry, CHO-K1 mCCR8 cells (CHO-K1 NC parental cells as control), PE anti-human IgG Fc, geometric mean
T2 construct: whole, on cells; also called mCCR8; murine CCR8
T2 sequence (looked up): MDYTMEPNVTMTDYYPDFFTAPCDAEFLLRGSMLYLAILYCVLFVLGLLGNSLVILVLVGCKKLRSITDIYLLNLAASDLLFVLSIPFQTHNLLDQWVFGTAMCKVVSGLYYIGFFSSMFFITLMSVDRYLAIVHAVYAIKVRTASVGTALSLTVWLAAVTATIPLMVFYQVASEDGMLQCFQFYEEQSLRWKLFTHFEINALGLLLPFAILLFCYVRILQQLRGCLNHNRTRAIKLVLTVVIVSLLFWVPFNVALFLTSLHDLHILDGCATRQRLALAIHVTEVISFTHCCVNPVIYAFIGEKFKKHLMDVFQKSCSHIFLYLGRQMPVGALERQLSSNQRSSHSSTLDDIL
Protocol: as §1

T1 sequence (P51685 whole entry): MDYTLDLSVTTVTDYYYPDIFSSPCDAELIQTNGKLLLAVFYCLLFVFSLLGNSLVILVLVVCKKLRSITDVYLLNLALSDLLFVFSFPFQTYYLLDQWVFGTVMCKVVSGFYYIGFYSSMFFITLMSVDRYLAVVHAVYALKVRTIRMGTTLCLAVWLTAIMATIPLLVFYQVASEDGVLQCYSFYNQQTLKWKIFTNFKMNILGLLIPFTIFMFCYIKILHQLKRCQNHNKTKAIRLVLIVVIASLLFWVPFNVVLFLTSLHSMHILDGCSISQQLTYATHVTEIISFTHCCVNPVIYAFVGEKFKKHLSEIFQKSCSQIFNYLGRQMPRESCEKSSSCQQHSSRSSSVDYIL

B1: 194A1G9 (antibody, V domains shown)
VH: QVQLQQSGTELVRPGASVTLSCKASGYTFTDHEMYWVKQTPVHGLEWIGAVDPETGSTAYNQKFKVKAILTADKSSSTAYMELRSLTSEDSAVYYCTSRLRRAMDNWGHGTSVTVSS
VL: DVVLTQTPLSLPVSPGDQASISCRSSQTLLHSSGNTYLHWFLQKPGQSPKLLIYKVSNRFSGVPDRFSGSGSGTDFTLKISRVEAEDLGVYFCSQNTHVPWTFGGGTKLEIK
notes: Detected with anti-human IgG Fc, so with a human Fc; also called surrogate anti-CCR8 antibody 194A1G9; in house anti-mCCR8 clone 194A1G9
- EC50 (read off the curve) [1]: ~0.1 nM
- EC50 (read off the curve) [2]: ~5 nM
